Source: patent JP2005168497A (dated 2005)
Where a chain is given by its changes, count along the chain named.

Experiments:
[1] = target: T1, TRAIL-R1-hFc (ヒトTRAIL-R1の細胞外領域とヒトIgG1のFc領域とが融合したタンパク質, ALEXIS社製) (human, UniProt O00220 24-239); assay: ELISA, purified antibody on plate-coated TRAIL-R1-hFc (Example 4)
T1 construct: extracellular domain; Bought (ALEXIS); not shown: human IgG1 Fc region
T1 sequence (looked up): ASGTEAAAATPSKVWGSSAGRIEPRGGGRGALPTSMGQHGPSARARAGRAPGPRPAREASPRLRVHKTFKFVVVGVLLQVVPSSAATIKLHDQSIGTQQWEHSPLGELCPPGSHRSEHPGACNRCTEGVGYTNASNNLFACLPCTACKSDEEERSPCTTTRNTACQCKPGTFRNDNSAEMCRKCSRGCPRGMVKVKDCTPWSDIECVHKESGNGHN

[2] = target: ヒトTRAIL-R2 (細胞表面の受容体; Colo205, U251, Jurkat, 正常ヒト肝実質細胞) (human, UniProt O14763 56-440); assay: cell-based or functional assay

B1: KMTR1抗体 (ハイブリドーマKMTR1, FERM BP-8038 の産生するヒトモノクローナル抗体) (antibody, V domains shown)
VH: EVQLLESGGGLVQPGRSLRLSCAASGFTFSSYAMSWVRQAPGKGLEWVSAISGSGGSRYYADSVKGRFTISRDNSKNTLYLQMNSLRAEDTAVYYCAKESSGWFGAFDYWGQGTLVTVSS
VL: EIVLTQSPDFQSVTPKEKVTITCRASQSIGSSLHWYQQKPDQSPKLLIKYASQSFSGVPSRFSGSGSGTDFTLTINSLEAEDAAAYYCHQSSSLPITFGQGTRLEIK
notes: Human IgG, kappa light chain; Signal peptide limits are predictions, not N-terminal analysis
binding result [1]: binds

B2: L-30-10抗体 (ハイブリドーマL-30-10, FERM BP-7700 / FERM BP-7769 の産生するヒト抗TRAIL-R2モノクローナル抗体) (antibody, V domains shown)
VH: QLQLQESGPGLVKPSETLSLTCTVSGGSISSRSNYWGWIRQPPGKGLEWIGNVYYRGSTYYNSSLKSRVTISVDTSKNQFSLKLSSVTVADTAVYYCARLSVAEFDYWGQGILVTVSS
VL: EIVLTQSPATLSLSPGERATLSCRASQSVSSFLAWYQQKPGQAPRLLIYDASNRATGSPARFSGSGSGTDFTLTISSLEPEDFAVYYCQQRSDWPLTFGPGTKVDIK
Jurkat細胞に対するLD50 (48時間) [2]: 0.13 µg/mL
U251細胞に対するLD50 (シスプラチン4μg/ml同時添加, 48時間) [2]: 0.17 µg/mL

B3: E-11-13抗体 (ハイブリドーマE-11-13, FERM BP-7698 / FERM BP-7770 の産生するヒト抗TRAIL-R2モノクローナル抗体) (antibody, V domains shown)
VH: QLQLQESGPGLVKPSETLSLTCTVSGGSIISKSSYWGWIRQPPGKGLEWIGSIYYSGSTFYNPSLKSRVTISVDTSKNQFSLKLSSVTAADTAVYYCARLTVAEFDYWGQGTLVTVSS
VL: B2 VL with S58I, D93N
Jurkat細胞に対するLD50 (48時間) [2]: 0.1 µg/mL
U251細胞に対するLD50 (シスプラチン4μg/ml同時添加, 48時間) [2]: 0.3 µg/mL
